Data published in the supplement of paper PMC9233669.
Variants at the floor of the assay were thinned out.

Columns and labels:
[1] = test system: biotinyl-Val-oxazolone; assay: self-aminoacylation, catalytic enhancement (BVO) (fold over background); higher = more active; k-Seq, kA / k0A0; sequences stand for … in GGGAAUGGAUCCACAUCUACGAAUUC…UUCACUGCAGACUUGACGAAGCUG
Outline: (§1)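 Catalytic enhancement equals the median kA over the uncatalyzed rate, the latter read from the low-activity peak of a bimodal Gaussian fit. Values of kA came from fitting each sequence's fraction reacted to a pseudo-first-order model, with 1000 bootstraps. Reacted RNA was captured with streptavidin and quantified by triplicate qPCR and Illumina sequencing after 90 minutes at room temperature with 2–1250 μM biotinyl-aminoacyl-oxazolone and 0.43 μM mutagenized RNA pools bearing a 21-nt variable region.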

[2] = test system: biotinyl-Ile-oxazolone; assay: self-aminoacylation, catalytic enhancement (BIO) (fold over background); higher = more active; k-Seq, kA / k0A0; sequences stand for … in GGGAAUGGAUCCACAUCUACGAAUUC…UUCACUGCAGACUUGACGAAGCUG
Outline: as §1

[3] = test system: biotinyl-Leu-oxazolone; assay: self-aminoacylation, catalytic enhancement (BLO) (fold over background); higher = more active; k-Seq, kA / k0A0; sequences stand for … in GGGAAUGGAUCCACAUCUACGAAUUC…UUCACUGCAGACUUGACGAAGCUG
Outline: as §1

[4] = test system: biotinyl-Trp-oxazolone; assay: self-aminoacylation, catalytic enhancement (BWO) (fold over background); higher = more active; k-Seq, kA / k0A0; sequences stand for … in GGGAAUGGAUCCACAUCUACGAAUUC…UUCACUGCAGACUUGACGAAGCUG
Outline: as §1

[5] = test system: biotinyl-Met-oxazolone; assay: self-aminoacylation, catalytic enhancement (BMO) (fold over background); higher = more active; k-Seq, kA / k0A0; sequences stand for … in GGGAAUGGAUCCACAUCUACGAAUUC…UUCACUGCAGACUUGACGAAGCUG
Outline: as §1

[6] = test system: biotinyl-Phe-oxazolone; assay: self-aminoacylation, catalytic enhancement (BFO) (fold over background); higher = more active; k-Seq, kA / k0A0; sequences stand for … in GGGAAUGGAUCCACAUCUACGAAUUC…UUCACUGCAGACUUGACGAAGCUG
Outline: as §1

Row | Sequence | self-aminoacylation [1] | self-aminoacylation [2] | self-aminoacylation [3] | self-aminoacylation [4] | self-aminoacylation [5] | self-aminoacylation [6]
1 | AUCACCCUGGUCAACGAGUGA [Fam2.1 aminoacylation ribozyme variant] | 4.69 | 4.43 | 10.6 | 10.6 | 9.31 | 64.3
2 | AUCACCCUGGUCACCGAGUGA [Fam2.1 aminoacylation ribozyme variant] | 5.92 | 6.34 | 15.4 | 13.2 | 17.5 | 96.6
3 | AUCACCCUGGUCAUCGAAUGA [Fam2.1 aminoacylation ribozyme variant] | 1.41 | 1.26 | 1.29 | 0.777 | 1.13 | 0.93
4 | AUCACCGUGGUCAUCGAGUGA [Fam2.1 aminoacylation ribozyme variant] | 4.01 | 3.99 | 6.15 | 7.75 | 7.05 | 52.5
5 | AUCACGCUGGUCAUCGAGUGA [Fam2.1 aminoacylation ribozyme variant] | 4.4 | 4.36 | 5.91 | 6.96 | 6.1 | 33.1
6 | AUCCAACUAGGUCAUCGGGUG [Fam2.2 aminoacylation ribozyme variant] | 4.93 | 5.82 | 9.99 | 8.01 | 8.53 | 80.9
7 | AUCCACCAAGGUCAUCGGGUG [Fam2.2 aminoacylation ribozyme variant] | 6.37 | 5.16 | 10.1 | 7.83 | 9.18 | 68.2
8 | AUCCACCUAGAUCAUCGGGUG [Fam2.2 aminoacylation ribozyme variant] | 3.26 | 3.37 | 4.88 | 4.45 | 3.25 | 23.2
9 | AUCCACCUAGCUCAUCGGGUG [Fam2.2 aminoacylation ribozyme variant] | 2.89 | 2.2 | 2.55 | 2.55 | 3.28 | 23.3
10 | AUCCACCUAGGGCAUCGGGUG [Fam2.2 aminoacylation ribozyme variant] | 4.02 | 3.45 | 5.15 | 4.35 | 4.46 | 22.1
11 | AUCCACCUAGGUCAACGGGUG [Fam2.2 aminoacylation ribozyme variant] | 3.34 | 2.4 | 4.15 | 4.49 | 3.17 | 30.3
12 | AUCCACCUAGGUCACCGGGUG [Fam2.2 aminoacylation ribozyme variant] | 4.47 | 4.14 | 6.1 | 6.67 | 5.52 | 40.4
13 | AUCCACCUAGGUCAUCGAGUG [Fam2.2 aminoacylation ribozyme variant] | 5.17 | 6.55 | 10.3 | 5.78 | 7.89 | 17.4
14 | AUCCACCUAGGUCAUCGGAUG [Fam2.2 aminoacylation ribozyme variant] | 1.65 | 1.4 | 1.11 | 1.04 | 1.19 | 0.726
15 | AUCCACCUAGGUCAUCGGCUG [Fam2.2 aminoacylation ribozyme variant] | 2.29 | 1.95 | 2.87 | 2.44 | 1.72 | 9.73
16 | AUCCACCUAGGUCUUCGGGUG [Fam2.2 aminoacylation ribozyme variant] | 6.01 | 4.4 | 6.56 | 6.45 | 5.09 | 37.1
17 | AUCCACCUAGGUGAUCGGGUG [Fam2.2 aminoacylation ribozyme variant] | 4.45 | 4.38 | 5.68 | 5.98 | 6.1 | 35.5
18 | AUCCACCUAGGUUAUCGGGUG [Fam2.2 aminoacylation ribozyme variant] | 4.45 | 3.44 | 4.84 | 5.62 | 4.13 | 32.1
19 | AUCCACCUAUGUCAUCGGGUG [Fam2.2 aminoacylation ribozyme variant] | 4.12 | 4.42 | 7.91 | 5.8 | 6.38 | 49.9
20 | AUCCAUCUAGGUCAUCGGGUG [Fam2.2 aminoacylation ribozyme variant] | 3.94 | 4.35 | 6.36 | 5.63 | 7.36 | 29.6
21 | AUCGCCCUGGUCAUCGAGUGA [Fam2.1 aminoacylation ribozyme variant] | 7.32 | 7.09 | 16 | 17.8 | 16.5 | 98.5
